To fix the notation:
B1: DNA mismatch repair protein Mlh1 (Homo sapiens), P40692 (parent)
chain: MSFVAGVIRRLDETVVNRIAAGEVIQRPANAIKEMIENCLDAKSTSIQVIVKEGGLKLIQIQDNGTGIRKEDLDIVCERFTTSKLQSFEDLASISTYGFRGEALASISHVAHVTITTKTADGKCAYRASYSDGKLKAPPKPCAGNQGTQITVEDLFYNIATRRKALKNPSEEYGKILEVVGRYSVHNAGISFSVKKQGETVADVRTLPNASTVDNIRSIFGNAVSRELIEIGCEDKTLAFKMNGYISNANYSVKKCIFLLFINHRLVESTSLRKAIETVYAAYLPKNTHPFLYLSLEISPQNVDVNVHPTKHEVHFLHEESILERVQQHIESKLLGSNSSRMYFTQTLLPGLAGPSGEMVKSTTSLTSSSTSGSSDKVYAHQMVRTDSREQKLDAFLQPLSKPLSSQPQAIVTEDKTDISSGRARQQDEEMLELPAPAEVAAKNQSLEGDTTKGTSEMSEKRGPTSSNPRKRHREDSDVEMVEDDSRKEMTAACTPRRRIINLTSVLSLQEEINEQGHEVLREMLHNHSFVGCVNPQWALAQHQTKLYLLNTTKLSEELFYQILIYDFANFGVLRLSEPAPLFDLAMLALDSPESGWTEEDGPKEGLAEYIVEFLKKKAEMLADYFSLEIDEEGNLIGLPLLIDNYVPPLEGLPIFILRLATEVNWDEEKECFESLSKECAMFYSIRKQYISEESTLSGQQSEVPGSIPNSWKWTVEHIVYKALRSHILPPKHFTEDGNILQLANLPDLYKVFERC
B2: Isoform 1 of Ras-related protein Rab-5C (Homo sapiens), P51148-1 (parent)
chain: MAGRGGAARPNGPAAGNKICQFKLVLLGESAVGKSSLVLRFVKGQFHEYQESTIGAAFLTQTVCLDDTTVKFEIWDTAGQERYHSLAPMYYRGAQAAIVVYDITNTDTFARAKNWVKELQRQASPNIVIALAGNKADLASKRAVEFQEAQAYADDNSLLFMETSAKTAMNVNEIFMAIAKKLPKNEPQNATGAPGRNRGVDLQENNPASRSQCCSN
partner: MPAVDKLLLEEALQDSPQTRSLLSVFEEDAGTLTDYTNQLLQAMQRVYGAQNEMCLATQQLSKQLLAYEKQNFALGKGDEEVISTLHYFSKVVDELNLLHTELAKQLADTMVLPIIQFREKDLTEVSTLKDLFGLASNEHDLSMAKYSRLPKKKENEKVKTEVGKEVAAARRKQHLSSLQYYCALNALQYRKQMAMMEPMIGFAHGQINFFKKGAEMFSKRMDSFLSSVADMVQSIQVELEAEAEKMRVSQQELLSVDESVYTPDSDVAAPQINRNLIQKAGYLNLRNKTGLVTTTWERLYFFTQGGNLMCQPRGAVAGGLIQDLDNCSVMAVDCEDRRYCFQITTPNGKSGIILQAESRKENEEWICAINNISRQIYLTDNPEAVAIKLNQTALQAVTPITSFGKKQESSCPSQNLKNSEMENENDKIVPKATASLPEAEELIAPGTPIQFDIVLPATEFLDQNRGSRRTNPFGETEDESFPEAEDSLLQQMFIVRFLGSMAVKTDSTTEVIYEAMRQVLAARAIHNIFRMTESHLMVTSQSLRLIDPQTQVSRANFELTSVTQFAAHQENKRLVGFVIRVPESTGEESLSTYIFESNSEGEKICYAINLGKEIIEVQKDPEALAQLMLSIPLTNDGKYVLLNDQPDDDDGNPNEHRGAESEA
B3: Transmembrane protein 51 (Homo sapiens), Q9NW97 (parent)
chain: MMAQSKANGSHYALTAIGLGMLVLGVIMAMWNLVPGFSAAEKPTAQGSNKTEVGGGILKSKTFSVAYVLVGAGVMLLLLSICLSIRDKRKQRQGEDLAHVQHPTGAGPHAQEEDSQEEEEEDEEAASRYYVPSYEEVMNTNYSEARGEEQNPRLSISLPSYESLTGLDETTPTSTRADVEASPGNPPDRQNSKLAKRLKPLKVRRIKSEKLHLKDFRINLPDKNVPPPSIEPLTPPPQYDEVQEKAPDTRPPD
partner: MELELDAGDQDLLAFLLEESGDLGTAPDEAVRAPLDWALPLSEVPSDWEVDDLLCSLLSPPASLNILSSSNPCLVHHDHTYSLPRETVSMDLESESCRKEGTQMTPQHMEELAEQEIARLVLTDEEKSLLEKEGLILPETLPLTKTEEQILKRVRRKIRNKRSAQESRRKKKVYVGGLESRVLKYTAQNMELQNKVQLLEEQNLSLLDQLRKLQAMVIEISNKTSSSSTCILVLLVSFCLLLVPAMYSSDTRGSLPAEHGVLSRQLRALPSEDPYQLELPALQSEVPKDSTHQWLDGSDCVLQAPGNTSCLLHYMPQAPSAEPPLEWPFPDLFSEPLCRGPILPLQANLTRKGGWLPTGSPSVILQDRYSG
B4: Synaptotagmin-16 (Homo sapiens), Q17RD7 (parent)
chain: MVLAMASQDVQNFFQPFSSWISRVYEALQQAGDMLSASLVNISKQDSKLSDKLDQDLDNIQIQETYFEDEEQDNDWSQEDANSLFLEVDHFSCCNSDLQDSAQNSSPSLSQHAKDSCSTMSQWPNWASDDRKLPHVLSSIAEEEHHLEKQRSGLQHGFDSQLPGTLETVNGKKQVNSFGDDEELSTSSDSDEEVIKQFEISVSRSQSFRSVTSEKGKQTGLEQKPKFSRSLLTHGEDGTEVSACEDLDGASQRRYSENLSYGEDDHIPAHSQSPCERGDAKHHGTSHQESSVVQSLRRQSTEGSLEMETAFNSRGFEDSYATDSSSMWSPEEQDRTNLQVPSGVSEPISKCGDLDVIFEYRAASQKLTVTIVRAQGLPDKDRSGVNSWQVHVVLLPGKKHRGRTNIQRGPNPVFREKVTFAKLEPRDVAACAVRFRLYAARKMTRERMMGEKLFYLSHLHPEGEMKVTLVLEPRSNISSGGSPLSPSAVSHSDSTSSTQSLSHGGAPELLVGLSYNATTGRLSVEMIKGSHFRNLAVNRAPDTYGKLFLLNSVGQEMSRCKTSIRRGQPNPVYKETFVFQVALFQLSDVTLMISVYNRRTMKRKEMIGWIALGQNSSGEEEQDHWEEMKETKGQQICRWHTLLES
B5: Isoform 6 of F-box only protein 11 (Homo sapiens), Q86XK2-6 (parent)
chain: MVAEESGPGAQNSPYQLRRKTLLPKRTACPTKNSMEGASTSTTENFGHRAKRARVSGKSQDLSAAPAEQYLQEKLPDEVVLKIFSYLLEQDLCRAACVCKRFSELANDPILWKRLYMEVFEYTRPMMHPEPGKFYQINPEEYEHPNPWKESFQQLYKGAHVKPGFAEHFYSNPARYKGRENMLYYDTIEDALGGVQEAHFDGLIFVHSGIYTDEWIYIESPITMIGAAPGKVADKVIIENTRDSTFVFMEGSEDAYVGYMTIRFNPDDKSAQHHNAHHCLEITVNCSPIIDHCIIRSTCTVGSAVCVSGQGACPTIKHCNISDCENVGLYITDHAQGIYEDNEISNNALAGIWVKNHGNPIIRRNHIHHGRDVGVFTFDHGMGYFESCNIHRNRIAGFEVKAYANPTVVRCEIHHGQTGGIYVHEKGRGQFIENKIYANNFAGVWITSNSDPTIRGNSIFNGNQGGVYIFGDGRGLIEGNDIYGNALAGIQIRTNSCPIVRHNKIHDGQHGGIYVHEKGQGVIEENEVYSNTLAGVWVTTGSTPVLRRNRIHSGKQVGVYFYDNGHGVLEDNDIYNHMYSGVQIRTGSNPKIRRNKIWGGQNGGILVYNSGLGCIEDNEIFDNAMAGVWIKTDSNPTLRRNKIHDGRDGGICIFNGGRGLLEENDIFRNAQAGVLISTNSHPILRKNRIFDGFAAGIEITNHATATLEGNQIFNNRFGGLFLASGVNVTMKDNKIMNNQDAIEKAVSRGQCLYKISSYTSYPMHDFYRCHTCNTTDRNAICVNCIKKCHQGHDVEFIRHDRFFCDCGAGTLSNPCTLAGEPTHDTDTLYDSAPPIESNTLQHN

One assay covers variants of B1. The note with it: with msh3_human MSH3, P20585.
As for A441T, the “effect of a mutation on the interaction” value is given as “with no effect”. In the case of V213M, the “effect of a mutation on the interaction” value was “with no effect”.

Regarding S106N, the “effect of a mutation on the interaction” value is reported as “with no effect”.

The variants in another assay derive from B1. The note with it: with ima1_human KPNA2, P52292.
A441T: the “effect of a mutation on the interaction” value was “with no effect”. Turning to V213M, the “effect of a mutation on the interaction” value was “with no effect”.

For S106N, the “effect of a mutation on the interaction” value is given as “with no effect”.

The next assay covers variants of B1. The settings on record: with psa1_human PSMA1, P25786.
In the case of A441T, the “effect of a mutation on the interaction” value is reported as “with no effect”. For the variant V213M, the “effect of a mutation on the interaction” value was “with no effect”. Turning to S106N, the “effect of a mutation on the interaction” value is on record as “with no effect”.

Variants of B2 are the subject of a further assay. The settings on record: with dp13b_human APPL2, Q8NEU8.
As to MAGRGGAARPNGPAAGNKICQFKLVLLGESAVGKSSLVLRFVKGQFHEYQESTIGAAFLTQTVCLDDTTVKFEIWDTAGQERYHSLAPMYYRRAQAAIVVYDITNTDTFARAKNWVKELQRQASPNIVIALAGNKADLASKRAVEFQEAQAYADDNSLLFMETSAKTAMNVNEIFMAIAKKLPKNEPQNATGAPGRNRGVDLQENNPASRSQCCSN [G93R], the “effect of a mutation on the interaction” value is listed as “with no effect”.

The next assay covers variants of B2. The note with it: with dp13b_human APPL2, Q8NEU8. The source holds these as a separate data set.
For the variant MAGRGGAARPNGPAAGNKICQFKLVLLGESAVGKSSLVLRFVKGQFHEYQESTIGAAFLTQTVCLDDTTVKFEIWDTAGQERYHSLAPMYYRGAQAAIVVYDITNTDTFARAKNWVKELQRQASPNIVIALAGNKADLASKRAVEFQEAQAYADDNSLLFMETSAKTAMNVNEIFMAIAKKLPKNEPQNATGAPGQNRGVDLQENNPASRSQCCSN [R196Q], the “effect of a mutation on the interaction” value is given as “with no effect”. As for MAGRGGAARPNGPAAGNKICQFKLVLLGESAVGKSSLVLRFVKGQFHEYQESTIGAAFLTQTVCLDDTTVKFEIWDTAGQERYHSLAPMYYRGAQAAIVVYDITNTDTFARAKNWVKELQRQASPNIVIALAGNKADLASKRAVEFQEAQAYADDNSLLFMETSAKTAMNVNEIFMAIAKKLPKNEPQNATGAPGRNRGVDLQENSPASRSQCCSN [N206S], the “effect of a mutation on the interaction” value is recorded as “with no effect”.

Variants of B3 are the subject of the next assay. The settings on record: with creb3_human CREB3, O43889.
As for MMAQSKANGSHYALTAIGLGMLVLGVIMAMWNLVPGFSAAEKPTAQGSNKTEVGGGILKSKTFSVAYVLVGAGVMLLLLSICLSIRDKRKQRQGEDLAHVQHPTGAGPHAQEEDSQEEEEEDEEAASRYYVPSYEEVMNTNYSEARGEEQNPRLSISLSSYESLTGLDETTPTSTRADVEASPGNPPDRQNSKLAKRLKPLKVRRIKSEKLHLKDFRINLPDKNVPPPSIEPLTPPPQYDEVQEKAPDTRPPD [P159S], the “effect of a mutation on the interaction” value was “with no effect”. For MMAQSKANGSHYALTAIGLGMLVLGVIMAMWNLVPGFSAAEKPTAQGSNKTEVGGGILKSKTFSVAYVLVGAGVMLLLLSICLSIRDKRKQRQGEDLAHVQHPTGAGPHAQEEDSQEEEEEDEEAASRYYVPSYEEVMNTNYSEARGEEQNPRLSISLPSYESLTGLDETTPTSTRADVEASPGNPPDRQNSKLAKRLKPLKVRRIKSEKLHLKDFRINLPDKNVPPPSIEPLTPPLQYDEVQEKAPDTRPPD [P237L], the “effect of a mutation on the interaction” value is “with no effect”. Same read-out and setting: with MMAQSKANGSHYALTAIGLGMLVLGVIMAMWNLVPGFSAAEKPTAQGSNKTEVGGGILKSKTFSVAYVLVGAGVMLLLLSICLSIRDKRKQRQGEDLAHVQHPTGAGPHAQEEDSQEEEEEDEEAASRYYVPSYEEVMNTNYSEAWGEEQNPRLSISLPSYESLTGLDETTPTSTRADVEASPGNPPDRQNSKLAKRLKPLKVRRIKSEKLHLKDFRINLPDKNVPPPSIEPLTPPPQYDEVQEKAPDTRPPD [R146W] the entry was “with no effect”; with MMAQSKANGSHYALTAIGLGMLVLGVIMAMWNLVPGFSAAEKPTAQGSNKTEVGGGILKSKTFSVAYVLVGAGVMLLLLSICLSIRDKRKQRQGEDLAHVQHPTGAGPHAQEEDSQEEEEEDEEAASRYYVPSYEEVMNTNYSEARGEEQNPRLSISLPSYESLTGLDETTPTSTRADVEASPGNPPGRQNSKLAKRLKPLKVRRIKSEKLHLKDFRINLPDKNVPPPSIEPLTPPPQYDEVQEKAPDTRPPD [D188G], “with no effect”.

The variants in a further assay derive from B4. The note with it: with praf1_human RABAC1, Q9UI14.
As to R131L, the “effect of a mutation on the interaction” value is reported as “with no effect”. Regarding A536T, the “effect of a mutation on the interaction” value was “with no effect”.

In a further assay the parent is B4. The settings on record: with rtn4_human RTN4, Q9NQC3.
As to R131L, the “effect of a mutation on the interaction” value is “with no effect”. For A536T, the “effect of a mutation on the interaction” value is recorded as “with no effect”.

The variants in the next assay derive from B4. The settings on record: with atrap_human AGTRAP.
For the variant R131L, the “effect of a mutation on the interaction” value is listed as “with no effect”. For A536T, the “effect of a mutation on the interaction” value is reported as “with no effect”.

Another assay covers variants of B5. The settings on record: with skp1_human SKP1, P63208.
Consider D507N, for which the “effect of a mutation on the interaction” value is recorded as “with no effect”. Consider T532S, for which the “effect of a mutation on the interaction” value is listed as “with no effect”.

The record behind these values is IntAct's records for PubMed 31515488.
